The record followed here is patent publication US20190077863A1 (AERPIO PHARMACEUTICALS, published 2019).

To fix the notation:
B1: mouse/human chimeric antibody HC0LC0 (antibody, human IgG4 S228P, kappa, V domains shown)
VH: EVQLVETGGGLVQPKGSMKLSCAASGFTFNANAMNWIRQAPGKGLEWVARIRTKSNNYATYYAGSVKDRFTISRDDAQNMLYLQMNDLKTEDTAMYYCVRDYYGSSAWITYWGQGTLVTVSA
VL: DIVMTQSHKFMSTSVGDRVSITCKASQHVGTAVAWYQQKPDQSPKQLIYWASTRHTGVPDRFTGSGSGTDFTLTISNVQSEDLADYFCQQYSSYPFTFGSGTKLEIKR
notes: Murine variable domains of R15E6 on human IgG4 (S228P) and kappa constant domains, expressed in CHO cells; also called VH0-VL0
B2: humanized R15E6 variant HC2LC1 (antibody, human IgG4 S228P, kappa, V domains shown)
VH: EVQLVESGGGLVQPGGSLRLSCAASGFTFNANAMNWVRQAPGKGLEWVGRIRTKSNNYATYYAGSVKDRFTISRDDSKNSLYLQMNSLKTEDTAVYYCVRDYYGSSAWITYWGQGTLVTVSS
VL: DVVMTQSPSFLSASVGDRVTITCKASQHVGTAVAWYQQRPGKAPKLLIYWASTRHTGVPSRFSGSGSGTEFTLTISSLQPEDFATYFCQQYSSYPFTFGGGTKLEIKR
notes: Human IgG4 (S228P) / kappa, expressed in CHO cells; Signal peptides left out by range; also called VH2-VL1
B3: humanized R15E6 variant HC2LC2 (antibody, human IgG4 S228P, kappa, V domains shown)
VH: B2 VH
VL: DIVMTQSPDSLAVSLGERATINCKASQHVGTAVAWYQQKPGQPPKLLIYWASTRHTGVPDRFSGSGSGTDFTLTISSLQAEDVAVYYCQQYSSYPFTFGQGTKLEIKR
notes: Human IgG4 (S228P) / kappa, expressed in CHO cells; Signal peptides left out by range; also called VH2-VL2
B4: humanized R15E6 variant HC3LC4 (antibody, human IgG4 S228P, kappa, V domains shown)
VH: B2 VH with G16R, A23T, S80I, L81A
VL: B3 VL with G41E, Q100G, L104V
notes: Human IgG4 (S228P) / kappa, expressed in CHO cells; Signal peptides left out by range; also called VH3-VL4
B5: humanized R15E6 variant HC1LC4 (antibody, human IgG4 S228P, kappa, V domains shown)
VH: B2 VH with R19K, P41S, S80T, L81A, V95A
VL: B3 VL with G41E, Q100G, L104V
notes: Human IgG4 (S228P) / kappa, expressed in CHO cells; Signal peptides left out by range; also called VH1-VL4
B6: humanized R15E6 variant HC2LC3 (antibody, human IgG4 S228P, kappa, V domains shown)
VH: B2 VH
VL: B2 VL with V2I, V3Q, S9F, F10S, R39K, E70D
notes: Human IgG4 (S228P) / kappa, expressed in CHO cells; Signal peptides left out by range; also called VH2-VL3
B7: humanized R15E6 variant HC2LC4 (antibody, human IgG4 S228P, kappa, V domains shown)
VH: B2 VH
VL: B3 VL with G41E, Q100G, L104V
notes: Human IgG4 (S228P) / kappa, expressed in CHO cells; Signal peptides left out by range; also called VH2-VL4
B8: humanized R15E6 variant HC1LC2 (antibody, human IgG4 S228P, kappa, V domains shown)
VH: B2 VH with R19K, P41S, S80T, L81A, V95A
VL: B3 VL
notes: Human IgG4 (S228P) / kappa, expressed in CHO cells; Signal peptides left out by range; also called VH1-VL2

Numbering of substitutions follows the chain as printed. Names may count otherwise.

A word on the Kd: it is the free concentration of one partner at which half of the binding sites on the other are occupied at equilibrium, for simple one-to-one binding. The low end stands for tighter binding, the high end for weaker binding. As usually defined, the koff is a measure of how fast the partners let go of each other. A lower koff goes with slow dissociation. As a reminder, the kon is a measure of how fast the partners come together.

One assay has as its target T1, Human VE-PTP (HPTP-β) containing first eight FN3 repeats with C-terminal His6 tag (Human ½ VE-PTP ECD) (human, UniProt P23467 23-820).
T1 construct: Produced in HEK293 cells and purified by the His tag; it was not cut off; also called Human Beta ½ ECD
T1 sequence: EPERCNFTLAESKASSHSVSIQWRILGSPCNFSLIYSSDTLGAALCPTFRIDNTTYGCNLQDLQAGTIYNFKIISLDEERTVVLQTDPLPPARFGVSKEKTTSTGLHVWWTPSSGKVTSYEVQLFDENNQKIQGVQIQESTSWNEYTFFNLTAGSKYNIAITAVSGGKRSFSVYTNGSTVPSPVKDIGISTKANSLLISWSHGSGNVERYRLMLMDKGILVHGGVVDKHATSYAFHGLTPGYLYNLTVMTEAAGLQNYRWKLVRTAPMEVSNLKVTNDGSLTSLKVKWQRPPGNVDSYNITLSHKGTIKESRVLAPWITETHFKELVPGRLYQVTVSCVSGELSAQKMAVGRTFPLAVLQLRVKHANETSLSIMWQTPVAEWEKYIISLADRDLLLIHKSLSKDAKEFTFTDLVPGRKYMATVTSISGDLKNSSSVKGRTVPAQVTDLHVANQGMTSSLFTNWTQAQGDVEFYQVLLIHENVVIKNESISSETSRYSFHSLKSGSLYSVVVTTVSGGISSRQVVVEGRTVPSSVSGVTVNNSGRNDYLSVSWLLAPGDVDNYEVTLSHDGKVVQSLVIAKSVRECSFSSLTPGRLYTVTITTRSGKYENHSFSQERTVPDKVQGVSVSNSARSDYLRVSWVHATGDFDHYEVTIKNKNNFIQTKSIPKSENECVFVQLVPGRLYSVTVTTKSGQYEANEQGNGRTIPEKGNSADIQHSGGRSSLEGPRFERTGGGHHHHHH
As to the kind of experiment: SPR (Biacore 3000), antibody captured on anti-human IgG, antigen as analyte 100 nM (single concentration). How it is done: Samples of each variant were further assessed by Biacore analysis to determine the binding affinity. Antibody binding experiments were performed on Biacore 3000™ at 25° C. Assay buffer: 10 mM HEPES buffer (pH 7.4), 150 mM NaCl, 3 mM EDTA, 0.05% P20 (polyoxyethylenesorbitan). […] Conjugation buffer: 10 mM sodium acetate buffer (pH 5). The flow rate used for capturing the ligand was 5 μL/min. The flow rate for the kinetic analysis was 50 μL/min. Flow cell 1 and […] of the CM5 chip were coated with maximum amounts of goat anti-human IgG. Approximately 150 RU of the test antibody was captured on flow cell 2, 3, and 4 as indicated. The antigen was flowed over the chip. Binding of the antigen to the antibodies was monitored in real time. The KD was determined from the observed kₒₙ and koff values.
A scouting analysis was performed using single analyte concentrations as indicated. At these concentrations, binding can be observed even if the ligand binding is weak. Flow cell 1 response was used for reference subtraction.
B1 registered a Ka of 1.61e+08 M⁻¹, a Kd of 6.22 nM, a koff of 0.000417 s⁻¹ and a kon of 67100 M⁻¹ s⁻¹.

As for B2, the Ka is 7.24e+07 M⁻¹, the Kd amounted to 13.8 nM, the off-rate (koff) was 0.000688 s⁻¹ and the kon was found to be 49800 M⁻¹ s⁻¹.

In the case of B3, the Ka turned out to be 2.85e+08 M⁻¹, binding was characterised by a dissociation constant (Kd) of 3.51 nM, the koff worked out at 0.000524 s⁻¹ and the kon worked out at 149000 M⁻¹ s⁻¹.

Regarding B4, the Ka stood at 1.59e+08 M⁻¹, binding was characterised by a dissociation constant (Kd) of 6.29 nM, the koff was 0.000887 s⁻¹ and the kon came to 139000 M⁻¹ s⁻¹.

For the molecule B5, the Ka was found to be 2.26e+08 M⁻¹, the Kd worked out at 4.42 nM, the koff came out at 0.000792 s⁻¹ and the kon came out at 179000 M⁻¹ s⁻¹.

B6: the Ka was 3.36e+08 M⁻¹, the Kd came to 2.98 nM, the koff amounted to 0.000662 s⁻¹ and the kon came to 222000 M⁻¹ s⁻¹.

Consider B7, for which the Ka was found to be 7.72e+07 M⁻¹, binding was put at a Kd of 13 nM, the koff is 0.000668 s⁻¹ and the kon came out at 51500 M⁻¹ s⁻¹.

In the case of B8, the Ka is 3.27e+08 M⁻¹, the Kd came to 3.06 nM, the koff turned out to be 0.000769 s⁻¹ and the kon is 251000 M⁻¹ s⁻¹.

The target in another assay is T2, Human HPTP-η with C-terminal His10 tag (Human HPTP-η ECD) (human, UniProt Q12913 36-975).
T2 construct: Produced in HEK293 cells; it was not cut off; also called Human PTPη; human PTP-η
T2 sequence: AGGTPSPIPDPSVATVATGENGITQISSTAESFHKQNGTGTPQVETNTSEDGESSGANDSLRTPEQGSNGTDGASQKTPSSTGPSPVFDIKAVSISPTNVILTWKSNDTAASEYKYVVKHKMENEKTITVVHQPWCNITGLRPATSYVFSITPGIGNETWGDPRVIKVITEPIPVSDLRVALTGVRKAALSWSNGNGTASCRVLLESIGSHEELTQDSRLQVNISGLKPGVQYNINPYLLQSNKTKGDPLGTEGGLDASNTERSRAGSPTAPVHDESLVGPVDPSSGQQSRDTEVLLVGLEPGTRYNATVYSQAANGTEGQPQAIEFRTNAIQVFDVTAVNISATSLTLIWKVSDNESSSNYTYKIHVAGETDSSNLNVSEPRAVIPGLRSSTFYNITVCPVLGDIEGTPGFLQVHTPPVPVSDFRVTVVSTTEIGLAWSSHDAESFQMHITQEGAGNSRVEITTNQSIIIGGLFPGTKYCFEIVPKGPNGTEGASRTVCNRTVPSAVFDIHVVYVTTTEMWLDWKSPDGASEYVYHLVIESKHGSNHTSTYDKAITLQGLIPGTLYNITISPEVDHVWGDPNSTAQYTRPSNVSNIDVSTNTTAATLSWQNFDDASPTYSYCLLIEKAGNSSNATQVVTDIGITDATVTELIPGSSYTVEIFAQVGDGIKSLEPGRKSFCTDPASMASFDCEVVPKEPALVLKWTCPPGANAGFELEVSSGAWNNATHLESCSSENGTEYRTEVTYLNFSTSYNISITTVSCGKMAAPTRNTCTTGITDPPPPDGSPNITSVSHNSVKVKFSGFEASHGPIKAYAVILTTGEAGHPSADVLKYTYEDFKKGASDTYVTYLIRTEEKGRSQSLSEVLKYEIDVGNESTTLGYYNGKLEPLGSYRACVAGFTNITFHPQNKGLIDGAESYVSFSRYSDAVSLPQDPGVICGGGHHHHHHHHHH
Nature of the assay: ELISA, coated antigen. The procedure:
HPTP-β, cyno PTP-β, and HPTP-η proteins were coated onto ELISA plates in coating buffer (pH 9.4). Each protein was prepared as a 1 μg/mL protein stock in 50 mM carbonate-bicarbonate. The coated proteins were aliquoted at a volume of 100 μL/well into sterile, clear, polystyrene, flat bottom 96-well plates. The plates were incubated overnight at 4° C. After overnight incubation, the plates were washed 3× with 200 μL/well of 1×PBS-T (PBS with 0.05% Tween 20). The immunizing protein was human VE-PTP (HPTP-β). The plates were then blocked with 200 μL/well of 5% blotting grade blocker non-fat dry milk in PBS-T and incubated for 1 hr at room temperature.
Primary antibody samples were prepared for the humanized variants and the negative control, anti-hCD20-hIgG4S228P, using 1 μg/well in 5% blotting grade blocker non-fat dry milk in PBS. Samples were tested in triplicates. The Fab antibody fragments were treated as the IgG antibodies. The plates were then washed 3× with PBS-T and 100 μL of primary antibody preparation was added in each well. The plates were then incubated for 1 hr at room temperature.
Then, […] Ultra TMB-ELISA was added in each well, and the plate was allowed to develop for 5 min at room temperature. After 5 min, 50 μL of 2 M sulfuric acid was added to each well to stop the reaction. The plates were then analyzed on a plate reader at an absorbance wavelength of 450 nm.
On the technique in general: In an ELISA, binding on a coated surface is turned into a signal by an enzyme label.
For B1, the binding result was “no binding (tested: <=0.2; 1 µg/well)”.

For the molecule B2, the binding result was “no binding (tested: <=0.2; 1 µg/well)”.

As for B3, the binding result is “no binding (tested: <=0.2; 1 µg/well)”.

For the molecule B4, the binding result is “no binding (tested: <=0.2; 1 µg/well)”.

As for B5, the binding result is given as “no binding (tested: <=0.2; 1 µg/well)”.

As to B6, the binding result was “no binding (tested: <=0.2; 1 µg/well)”.

Regarding B7, the binding result is “no binding (tested: <=0.2; 1 µg/well)”.

For B8, the binding result is recorded as “no binding (tested: <=0.2; 1 µg/well)”.
